Our source for the Binding affinity (RU) values is US20250011363A1, “OPTIMIZED SHORTENED PEPTIDE THAT BINDS TO ACETYLCHOLINE RECEPTOR, AND USE THEREOF” (SKINMED CO., LTD., priority 2021, published 2025).

Assay [1] deals with acetylcholine receptor. Briefly: SPR, peptide at 10 uM on immobilized AchR. For orientation: SPR reads the build-up and loss of mass on a sensor chip optically.
The target in assay [2] is acetylcholine receptor. As to the kind of experiment: SPR, AchR immobilized on chip, peptide 10 uM.

In the assay with acetylcholine receptor [1], RPEIRK [6mer-2-1085] gave a Binding affinity (RU) of 42 RU.
Turning to RPMGRK [6mer-2-1074], the Binding affinity (RU) with acetylcholine receptor [1] was determined as 33 RU.
In the assay with acetylcholine receptor [2], RQVLR [5mer-454] yielded a Binding affinity (RU) of 77 RU.
On the same count and under the same terms, next, RGQYK [5mer-457]: 59 RU.
KEMGKK [6mer-2-1053]: the Binding affinity (RU) with acetylcholine receptor [1] was found to be 34 RU.
As for KGLRK [5mer-156], the Binding affinity (RU) with acetylcholine receptor [2] came to 85 RU.
Regarding KYNIRK [6mer-2-1062], the Binding affinity (RU) with acetylcholine receptor [1] came out at 35 RU.
In turn, KGVCR [5mer-453] showed a Binding affinity (RU) with acetylcholine receptor [2] of 68 RU.
In turn, KEMHKK [6mer-2-1090] returned a Binding affinity (RU) with acetylcholine receptor [1] of 33 RU.
In turn, KYTERR [6mer-2-1082] yielded a Binding affinity (RU) with acetylcholine receptor [1] of 31 RU.
For RLVCK [5mer-456], the Binding affinity (RU) in the assay with acetylcholine receptor [2] was 52 RU.
Consider RWLYK [5mer-455], for which, in the assay with acetylcholine receptor [2], the Binding affinity (RU) was found to be 61 RU.
Consider RGQRR [5mer-159], for which the Binding affinity (RU) with acetylcholine receptor [2] worked out at 73 RU.
As for RFNVRK [6mer-2-1063], the Binding affinity (RU) with acetylcholine receptor [1] is 24 RU.
The molecule KHDMKK [6mer-2-1069] yielded a Binding affinity (RU) with acetylcholine receptor [1] of 36 RU.
As for REKPRK [6mer-2-1084], the Binding affinity (RU) with acetylcholine receptor [1] was 29 RU.
Molecule KEEMRR [6mer-2-1087] displayed a Binding affinity (RU) in the assay with acetylcholine receptor [1] of 21 RU.
For the molecule KQFLR [5mer-149], in the assay with acetylcholine receptor [2], the Binding affinity (RU) was 80 RU.
For the molecule KWVTK [5mer-161], the Binding affinity (RU) in the assay with acetylcholine receptor [2] was determined as 52 RU.
In the case of RVFTK [5mer-151], the Binding affinity (RU) in the assay with acetylcholine receptor [2] worked out at 66 RU.
Molecule RHMERK [6mer-2-1075] yielded a Binding affinity (RU) with acetylcholine receptor [1] of 31 RU.
KGRCR [5mer-157] showed a Binding affinity (RU) in the assay with acetylcholine receptor [2] of 78 RU.
RVRTR [5mer-150] yielded a Binding affinity (RU) with acetylcholine receptor [2] of 64 RU.
In the assay with acetylcholine receptor [1], RIANRK [6mer-2-1065] yielded a Binding affinity (RU) of 27 RU.
In turn, KTNERK [6mer-2-1060] had a Binding affinity (RU) with acetylcholine receptor [1] of 35 RU.
With RYCIRR [6mer-2-1076], the Binding affinity (RU) with acetylcholine receptor [1] is 34 RU.
In the assay with acetylcholine receptor [1], KYSMRR [6mer-2-1095] came in with a Binding affinity (RU) of 39 RU.
RFADRR [6mer-2-1059] displayed a Binding affinity (RU) in the assay with acetylcholine receptor [1] of 35 RU.
For RSIRR [5mer-160], the Binding affinity (RU) in the assay with acetylcholine receptor [2] amounted to 53 RU.
With KCNEKK [6mer-2-1079], in the assay with acetylcholine receptor [1], the Binding affinity (RU) is 40 RU.
With KNDWRK [6mer-2-1086], in the assay with acetylcholine receptor [1], the Binding affinity (RU) was found to be 21 RU.
In the case of KYSWRK [6mer-2-1073], the Binding affinity (RU) with acetylcholine receptor [1] came to 24 RU.
The molecule RNDERK [6mer-2-1056] yielded a Binding affinity (RU) with acetylcholine receptor [1] of 22 RU.
For the molecule KPEHKR [6mer-2-1066], the Binding affinity (RU) with acetylcholine receptor [1] came out at 29 RU.
For the molecule RWQTK [5mer-158], the Binding affinity (RU) in the assay with acetylcholine receptor [2] came out at 65 RU.
RFWEKK [6mer-2-1097]: the Binding affinity (RU) with acetylcholine receptor [1] was 23 RU.
On the same count and under the same terms, then RPCEKK [6mer-2-1088], with 39 RU; and RIHVKK [6mer-2-1068], with 26 RU; and KYKMRR [6mer-2-1081], with 32 RU.
For the molecule RRRRR [5mer-152], the Binding affinity (RU) with acetylcholine receptor [2] turned out to be 56 RU.
In the assay with acetylcholine receptor [1], KKNKKR [6mer-2-1054] yielded a Binding affinity (RU) of 43 RU.
Take KHPKRR [6mer-2-1098]: the Binding affinity (RU) in the assay with acetylcholine receptor [1] was found to be 28 RU.
The molecule RQVLK [5mer-451] gave a Binding affinity (RU) in the assay with acetylcholine receptor [2] of 53 RU.
Take RGVSK [5mer-452]: the Binding affinity (RU) in the assay with acetylcholine receptor [2] was 82 RU.
Molecule KPPIKK [6mer-2-1061] registered a Binding affinity (RU) with acetylcholine receptor [1] of 38 RU.
As for RSITR [5mer-154], the Binding affinity (RU) with acetylcholine receptor [2] is 54 RU.
RCMKRR [6mer-2-1064]: the Binding affinity (RU) with acetylcholine receptor [1] turned out to be 39 RU.
Turning to RVIQK [5mer-450], the Binding affinity (RU) in the assay with acetylcholine receptor [2] was determined as 78 RU.
In the assay with acetylcholine receptor [1], KPHWKR [6mer-2-1072] returned a Binding affinity (RU) of 29 RU.
In the assay with acetylcholine receptor [1], RKTDRR [6mer-2-1089] returned a Binding affinity (RU) of 43 RU.
In the assay with acetylcholine receptor [1], RKKKKK [6mer-2-1057] displayed a Binding affinity (RU) of 25 RU.
In the case of RFDNKR [6mer-2-1091], the Binding affinity (RU) with acetylcholine receptor [1] amounted to 31 RU.
KRYLR [5mer-155] yielded a Binding affinity (RU) in the assay with acetylcholine receptor [2] of 57 RU.
RTTWRK [6mer-2-1071]: in the assay with acetylcholine receptor [1], the Binding affinity (RU) was 25 RU.
On to RLQQR [5mer-460], for which the Binding affinity (RU) with acetylcholine receptor [2] is 74 RU.
KTTDKK [6mer-2-1093]: the Binding affinity (RU) with acetylcholine receptor [1] was determined as 43 RU.
In the assay with acetylcholine receptor [2], KGLYR [5mer-449] yielded a Binding affinity (RU) of 65 RU.
Consider KMTIKK [6mer-2-1077], for which the Binding affinity (RU) with acetylcholine receptor [1] was found to be 34 RU.
Regarding RDEIRK [6mer-2-1067], the Binding affinity (RU) with acetylcholine receptor [1] worked out at 29 RU.
As to RMPWKK [6mer-2-1058], the Binding affinity (RU) with acetylcholine receptor [1] amounted to 24 RU.
In the assay with acetylcholine receptor [1], RPHVRR [6mer-2-1070] gave a Binding affinity (RU) of 31 RU.
On the same count and under the same terms, then KAWERK [6mer-2-1094], with 43 RU; and RAKFRR [6mer-2-1092], with 21 RU.
As to RKHKKK [6mer-2-1080], the Binding affinity (RU) in the assay with acetylcholine receptor [1] came to 23 RU.
RSIQK [5mer-153] came in with a Binding affinity (RU) with acetylcholine receptor [2] of 72 RU.
In the assay with acetylcholine receptor [2], RSQLR [5mer-459] gave a Binding affinity (RU) of 76 RU.
KPDFKR [6mer-2-1055]: the Binding affinity (RU) in the assay with acetylcholine receptor [1] is 30 RU.
The molecule KDTFRR [6mer-2-1078] came in with a Binding affinity (RU) in the assay with acetylcholine receptor [1] of 40 RU.
The same measure, in the same setting: then KTKGKR [6mer-2-1083], with 39 RU; and RANVKR [6mer-2-1096], with 39 RU.
The molecule RRFLK [5mer-458] showed a Binding affinity (RU) with acetylcholine receptor [2] of 65 RU.
